12 molecules from patent publication US20250340652A1 (CHENGDU DI AO PHARMACEUTICAL GROUP, published 2025) can be followed below.

B1: B90 (antibody, human IgG4, kappa)
heavy: not shown
light: DIQMTQSPSILSASVGDRVTLTCRASQSISSWLAWYQQTPGKAPRVLIYEASTLEVGVPSRFSGSGSGTDFTLTISSLQPEDFGTYFCQQYHTDSRTFGQGTILEIKRTVAAPSVFIFPPSDEQLKSGTASVVCLLNNFYPREAKVQWKVDNALQSGNSQESVTEQDSKDSTYSLSSTLTLSKADYEKHKVYACEVTHQGLSSPVTKSFNRGEC
notes: also called P59391
B2: B90 (IgG4SP) (antibody)
heavy: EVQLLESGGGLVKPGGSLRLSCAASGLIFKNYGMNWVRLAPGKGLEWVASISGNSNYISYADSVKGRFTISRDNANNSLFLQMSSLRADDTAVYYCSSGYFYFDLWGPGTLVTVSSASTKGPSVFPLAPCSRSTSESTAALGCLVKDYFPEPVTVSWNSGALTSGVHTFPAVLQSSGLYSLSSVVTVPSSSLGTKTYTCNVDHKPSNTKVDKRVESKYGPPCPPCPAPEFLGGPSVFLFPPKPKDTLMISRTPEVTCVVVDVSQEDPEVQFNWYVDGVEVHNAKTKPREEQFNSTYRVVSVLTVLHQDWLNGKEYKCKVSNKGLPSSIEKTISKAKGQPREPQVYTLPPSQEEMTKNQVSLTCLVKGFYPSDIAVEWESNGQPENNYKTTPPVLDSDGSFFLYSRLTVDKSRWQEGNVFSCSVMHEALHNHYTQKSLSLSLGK
light: B1 light
notes: IgG4SP (S228P in the hinge, already in the heavy chain entry); also called B90SP; P62303
B3: A53 (antibody, human IgG4, kappa, V domains shown)
VH: EVQLLESGPGLVKPSQTLSLTCTVSGGSISSGGYYWSWIRQHPGKGLEWIGYIYYSGSTYYNPSLKSRVTISVDTSKNQFSLKLSSVTAADTAVYYCARDSRGRSYGMDVWGQGTMVTVSS
VL: DIQMTQSPSSLSASVGDRVTITCRASQSINNYLNWYQEKPGKAPKLLIYAASSLQSGVPSRFSGSGSGTDFTLTISSLQPEDFATYYCQQSYSYPFTFGPGTKVDIKR
notes: also called P59374
B4: A156 (antibody, human IgG4, kappa)
heavy: not shown
light: AIQLTQSPSSLSASVGDRVTITCRASQGISSYLAWYQQKPGKAPKLLIFAASLLQRGVPSRFSGSGFGTDFTLTISGLQPEDFATYFCQQFNTYPITFGGGTKVEIKRTVAAPSVFIFPPSDEQLKSGTASVVCLLNNFYPREAKVQWKVDNALQSGNSQESVTEQDSKDSTYSLSSTLTLSKADYEKHKVYACEVTHQGLSSPVTKSFNRGEC
notes: also called P59378
B5: A156 (IgG4SP) (antibody)
heavy: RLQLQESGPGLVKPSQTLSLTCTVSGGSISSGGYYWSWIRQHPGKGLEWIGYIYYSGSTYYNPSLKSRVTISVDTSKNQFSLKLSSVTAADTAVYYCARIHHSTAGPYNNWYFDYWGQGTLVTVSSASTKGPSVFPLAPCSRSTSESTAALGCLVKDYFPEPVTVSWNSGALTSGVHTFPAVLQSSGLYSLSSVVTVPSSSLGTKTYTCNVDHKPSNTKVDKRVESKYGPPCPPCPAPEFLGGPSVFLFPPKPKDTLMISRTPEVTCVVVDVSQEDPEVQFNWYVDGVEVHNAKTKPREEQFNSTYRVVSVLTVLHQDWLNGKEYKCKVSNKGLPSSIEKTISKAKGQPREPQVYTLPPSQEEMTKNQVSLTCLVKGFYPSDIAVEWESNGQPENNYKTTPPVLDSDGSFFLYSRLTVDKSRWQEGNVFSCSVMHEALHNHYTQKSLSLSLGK
light: B4 light
notes: IgG4SP (S228P in the hinge, already in the heavy chain entry); also called A156SP; P62300
B6: B156 (antibody, human IgG4, kappa)
heavy: not shown
light: DIQLTQSPSSLSASIGDRVTITCRASQGISSFLAWYQQKPGKAPQLLIYAASTLQSGVPSRFSGSGSGTEFTLTISSLQPEDFATYYCQQFKIYPLTFGGGTKVEVKRTVAAPSVFIFPPSDEQLKSGTASVVCLLNNFYPREAKVQWKVDNALQSGNSQESVTEQDSKDSTYSLSSTLTLSKADYEKHKVYACEVTHQGLSSPVTKSFNRGEC
notes: also called P59397
B7: B156 (IgG4SP) (antibody)
heavy: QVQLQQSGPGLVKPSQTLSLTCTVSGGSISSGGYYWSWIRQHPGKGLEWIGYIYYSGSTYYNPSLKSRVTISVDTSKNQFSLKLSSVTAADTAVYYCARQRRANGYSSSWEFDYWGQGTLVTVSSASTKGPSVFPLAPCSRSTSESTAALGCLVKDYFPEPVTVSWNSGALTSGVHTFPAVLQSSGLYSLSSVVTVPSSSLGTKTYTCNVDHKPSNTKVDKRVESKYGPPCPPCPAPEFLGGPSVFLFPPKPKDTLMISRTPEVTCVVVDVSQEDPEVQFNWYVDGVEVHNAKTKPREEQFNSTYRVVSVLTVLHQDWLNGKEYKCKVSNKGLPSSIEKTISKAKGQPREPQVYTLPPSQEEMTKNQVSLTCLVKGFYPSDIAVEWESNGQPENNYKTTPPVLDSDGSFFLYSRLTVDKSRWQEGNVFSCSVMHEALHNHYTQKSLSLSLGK
light: B6 light
notes: IgG4SP (S228P in the hinge, already in the heavy chain entry); also called B156SP; P62304
B8: A61 (antibody, human IgG4, kappa)
heavy: not shown
light: DIVMTQSPLSLPVTLGQPASISCRSSQSLVKSDGNTYLSWFQQRPGQSPRRLIYKVSNRDSGVPDRFSGSGSGTDFTLKISRVEAEDVGVYYCMQGTHWPPTFGPGTKVDIKRTVAAPSVFIFPPSDEQLKSGTASVVCLLNNFYPREAKVQWKVDNALQSGNSQESVTEQDSKDSTYSLSSTLTLSKADYEKHKVYACEVTHQGLSSPVTKSFNRGEC
notes: also called P59375
B9: A61 (IgG4SP) (antibody)
heavy: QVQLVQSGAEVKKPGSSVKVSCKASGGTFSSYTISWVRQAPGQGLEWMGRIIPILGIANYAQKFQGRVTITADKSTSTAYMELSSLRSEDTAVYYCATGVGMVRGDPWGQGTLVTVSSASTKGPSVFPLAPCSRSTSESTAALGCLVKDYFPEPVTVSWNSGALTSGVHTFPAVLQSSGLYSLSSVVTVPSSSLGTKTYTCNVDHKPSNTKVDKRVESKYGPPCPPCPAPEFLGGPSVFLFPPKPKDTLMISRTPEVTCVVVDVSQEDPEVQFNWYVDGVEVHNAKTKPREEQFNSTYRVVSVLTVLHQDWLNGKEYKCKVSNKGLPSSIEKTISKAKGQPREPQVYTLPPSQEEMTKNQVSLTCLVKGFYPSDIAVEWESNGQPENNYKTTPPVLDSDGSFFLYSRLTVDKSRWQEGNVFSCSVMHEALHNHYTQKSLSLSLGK
light: B8 light
notes: IgG4SP (S228P in the hinge, already in the heavy chain entry); also called A61SP; P62298
B10: B145 (antibody, human IgG4, kappa, V domains shown)
VH: QLQLQESGPGLVKPSQTLSLTCTVSGGSISSGGYYWSWIRQHPGKGLEWIGYIYYSGSTYYNPSLKSRVTISVDTSKNQFSLKLSSVTAADTAVYYCARGKRDGYNYYFDYWGQGTLVTVSS
VL: DIVMTQSPSSLSASVGDRVTITCQASQDISNYLNWYQQKPGKAPKLLIYDASSLESGVPSKFSGSRSGTDFTLTISSLQPEDSATYYCQQYRSYPITFGGGTKVEIKR
notes: also called P59396
B11: B44 (antibody, human IgG4, kappa, V domains shown)
VH: QVQLVQSGAEVKKPGASVKVSCKASGYTFTSYYMHWVRQAPGQGLEWMGIINPSGGSTSYAQKFQGRVTMTRDTSTSTVYMELSSLRSEDTAVYYCARGVSRRGAFDIWGQGTMVTVSS
VL: DVVMTQSPLSLPVTPGEPASISCRSSQSLLHRSGYNYLDWYVQKPGQSPQLLIYLGSIRAVGVPDRFSGSASGTDFTLRISRVEAEDVGIYYCMQALQTPPAFGGGTKVEIKR
notes: also called P59386
B12: A22 (antibody, human IgG4, kappa, V domains shown)
VH: EVQLVESGAEVKKPGSSVKVSCKASGGTFSSYAISWVRQAPGQGLEWMGGIIPIFGTANYAQKFQGRVTITADESTSTAYMELSSLRSEDTAVYYCAFTSGSYYYFDYWGQGTLVTVSS
VL: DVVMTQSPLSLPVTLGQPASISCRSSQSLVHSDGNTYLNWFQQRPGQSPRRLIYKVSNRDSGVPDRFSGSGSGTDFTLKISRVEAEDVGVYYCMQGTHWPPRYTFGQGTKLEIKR
notes: also called P59370

The first assay addresses T1, CC1H, major antigenic region of PLA2R (human, UniProt Q13018 21-367).
T1 construct: Secreted from CHO-S cells, purified on Ni column; also called CCIh
The experiment in a line: indirect ELISA, CC1h coated at 2 ug/mL, anti-human IgG Fc HRP. As for the experimental part:
(§1) 30 μL of CC1h (2 μg/mL, diluted with 1*PBS) was added to the reaction wells of the ELISA plate, and the plate was sealed and incubated at 4° C. overnight. The plate was washed with PBST for 3 times, and the liquid in the wells was discarded. 5% PBSM was added to block the ELISA plate at room temperature for 2 hours. The plate was washed with PBST for 3 times by adding 30 μL of Abs (diluted with 1*PBS) to each well of the ELISA plate, and the plate was incubated at room temperature for 60 min. The plate was washed with PBST for 3 times, 30 μL of anti-human IgG Fc HRP (diluted with 1% PBSM at a ratio of 1:8000) was added to each well, and incubated at room temperature for 60 min. TMB was added and the reaction was stopped with 2M blocking solution and the OD value was detected at 450 nm. Recombinant Ipilimumab (Sanyou Biopharmaceuticals Co., Ltd.) was used as a negative control. The test results were illustrated in Table 2 as well as FIG. 4 and FIG. 5.
(ELISA stands for enzyme-linked immunosorbent assay.)
Take B1: a half-maximal response (EC50) required 2.96 ng/mL.

For the molecule B2, the EC50 – broadly, the concentration needed to bring the measured effect to its halfway point – is 19.5 ng/mL.

The molecule B3 yielded a concentration giving a half-maximal response (EC50) of 4.03 ng/mL.

On to B4, for which the response was half-maximal at 6.9 ng/mL (EC50).

B5: the EC50 is 14.7 ng/mL.

In turn, B6 returned a concentration giving a half-maximal response (EC50) of 10.5 ng/mL.

B7 yielded an EC50 of 8.12 ng/mL.

Molecule B8 displayed an EC50 of 4.6 ng/mL.

Turning to B9, the EC50 was 10.3 ng/mL.

For the next assay, the target named is T2, CC1H-Biotin (human, UniProt Q13018 21-367, biotin by EZ-Link Sulfo-NHS-LC-Biotin, 1.80 mol Biotin/mol protein; sites not given).
T2 construct: also called biotin-labeled CC1H
The experiment in a line: BLI (Octet N1), CC1H-Biotin on SA sensor, antibody 76.6-8.5 nM. The protocol: Sartorius Octet® N1 molecular interaction instrument was used, the SA sensor (Sartorius, Octet® Streptavidin (SA) Biosensor, 18-5019) was selected.
The sensor was immersed in a PBSTB buffer (0.02% Tween-20 and 0.1% BSA were added in the PBS buffer) to be pre-wetted for 10 min or longer, and loaded onto the molecular interaction instrument.
The association constant (Ka), dissociation constant (Kd), and affinity constant (KD) were calculated and illustrated in Table 5 for details.
For the molecule B1, the Kd (usually the concentration at which binding is half-saturated) turned out to be 0.841 nM; the koff (as a rule, a measure of how fast the partners let go of each other) was 0.000512 s⁻¹; the kon (in general, the second-order rate constant of association) turned out to be 608000 M⁻¹ s⁻¹.

In turn, B2 registered a Kd of 6.59 nM, a koff of 0.000639 s⁻¹ and a kon of 97000 M⁻¹ s⁻¹.

Molecule B4 displayed an equilibrium dissociation constant (Kd) of 0.158 nM, a koff of 0.000102 s⁻¹ and a kon of 644000 M⁻¹ s⁻¹.

Molecule B5 showed a Kd of 0.456 nM, a koff of 0.000169 s⁻¹ and a kon of 371000 M⁻¹ s⁻¹.

B6 returned a Kd of 0.242 nM, a koff of 0.000125 s⁻¹ and a kon of 516000 M⁻¹ s⁻¹.

Take B7: the Kd is below 0.001 nM, the koff is below 1e-07 s⁻¹ and the kon was determined as 654000 M⁻¹ s⁻¹.

For the molecule B8, the affinity, expressed as Kd, was 0.0178 nM; the koff worked out at 1.89e-05 s⁻¹; the association rate constant (kon) worked out at 1.06e+06 M⁻¹ s⁻¹.

The molecule B9 had a Kd of 0.126 nM, a koff of 8.17e-05 s⁻¹ and a kon of 648000 M⁻¹ s⁻¹.

The next assay deals with T1, CC1H, major antigenic region of PLA2R. The experiment in a line: indirect ELISA, CC1h coated at 2 µg/mL, anti-human IgG Fc HRP, ΔOD450. The protocol: The human anti-human PLA2R antibody after phage screening and expression in Example 2 was measured in terms of the ability of binding to CC1h using the indirect ELISA method.
as §1
For B10, the binding result was “no binding”.

For the molecule B11, the binding result is listed as “no binding”.

In the case of B12, the binding result was “no binding”.
